For data set [1] the following is noted: previously available approach; cited from earlier work.
Data set [2] is described as follows: Mouse body weight analysis. The data set is classed as in vivo. Set-up: key to Significance of body weight difference between day 0 and 3 days after systemic administration: ns (not significant). Particulars: for Weight loss: day 0 vs 2 days after injection, RLuc8.6 100 mg/kg, AADC-IKVAV 250 mg/kg. Here is the method:
To assess the potential impact of the RAID approach on the body weight of the mice involved in behavior analysis (n=11 mice for the FUS alone+L-DOPA group and n=14 mice for the FUS+AADC-IKVAV (SEQ ID NO: 23)+L-DOPA group), their body weight was recorded on a daily basis before and after FUS-BBBO administration. […] The body weight of the additional group of mice was also recorded in a similar manner; however, unintentionally four mice were omitted from weighing on the day following the AADC-IKVAV (SEQ ID NO: 23) injection. Similarly, the mouse body weight was recorded before and after the intravenous injection of unmodified or engineered RLuc8.6, which is related to the study presented in FIG. 5.

A short description of data set [3]: Ex vivo BLI of brain sections, retention of unmodified or engineered RLuc8.6. It counts as in vivo, mouse. The source says: (§1) FUS-BBBO—C57BL/6J male or female mice (12-18 weeks of age) were anaesthetized with 2.5% isoflurane in 1.5% O2 and shaved on top of skull using a trimmer. A catheter, made by a 30-gauge needle connected to PE10 tubing, was inserted into the tail vein, affixed in place using tissue glue and then flushed with 10 units (U) mL^−1 of heparin in sterile saline (0.9% NaCl). Subsequently, the mouse was mounted on the RK50 (FUS Instruments) stereotactic platform using the ear bars and bite bar/nose cone. A midline scalp incision was vertically made to expose the skull after disinfecting the site using three alternating scrubs of chlorhexidine scrub and chlorhexidine solution. The locations of Lambda and Bregma were registered in the RK50 software using the guild pointer. Next, sterile ultrasound gel was applied on the surface of skull before placing the ultrasound transducer in a tank, both of which were filled with degassed water. The mice were then sequentially injected via tail vein with purified recombinant protein in PBS buffer and approximately 1.5×10^6 DEFINITY microbubbles (Lantheus) per gram of body weight diluted in sterile saline. Immediately after injections of protein and microbubbles, the mice were insonated using RK-50 FUS system with axial and lateral diameter of 5 mm and 1.2 mm, respectively.
Ex vivo analysis of engineered RLuc8.6—FUS was performed to target three sites in the left hemisphere of C57BL6J mice (n=5 mice per group) immediately after systemic administration of RLuc8.6 (20 mg/mL, 100 mg/kg) or engineered variant (20 mg/mL, 104 mg/kg) and microbubbles by tail vein injection. The dose of engineered RLuc8.6 was increased accordingly based on their molecular weight for injecting the same number of molecules as unmodified RLuc8.6. The control group (n=5 mice) was injected intravenously with the same dose of unmodified RLuc8.6 without FUS. The mice were euthanized using CO2 without perfusion at two time points (2-day and 7-day) after FUS-BBBO procedure. Immediately afterwards, the brains were extracted, washed with ˜20 mL PBS buffer in a 50 mL conical tube for 30 s, and then cut into 2 mm sections without olfactory bulb and brainstem using a coronal Slicer (Invitrogen). The sections were individually transferred into a 6-well glass bottom plate (Cellvis) filled with 2 mL PBS buffer. BLI was performed using an IVIS spectrum imager (Perkin Elmer) immediately after adding 1 mL dissolved CTZ (cat #303-INJ, Nanolight Technology) with a final concentration of 10 μM. The parameters used here were similar as in vivo BLI with is of exposure time and field of view C. The average radiance (p/s/cm^2/sr) of each brain section was quantified with the Living Image software (Caliper Life Sciences) and summed to compare the activity retention of RLuc8.6 among different groups.

Data set [4] can be described thus: Immunohistochemical analysis of RLuc8.6 after FUS-BBBO delivery. The data set is classed as in vivo, mouse. Particulars: 150 mg/kg i.v., FUS-BBBO 4 sites left striatum, 1 h post-delivery.
Source text: as §1, with “The mice were then sequentially injected via tail vein with purified recombinant protein in PBS buffer and approximately 1.5×10^6 DEFINITY microbubbles (Lantheus) per gram of body weight diluted in sterile saline. Immediately after injections of protein and microbubbles, the mice were insonated using RK-50 FUS system with axial and lateral diameter of 5 mm and 1.2 mm, respectively.” left out
Histological imaging—All histological images were obtained using a fluorescence microscope (BZ-X810, Keyence). To evaluate RLuc8.6 retention, as depicted in FIG. 2b and FIG. 3, we acquired fluorescence images of striatal sections using a ×4 objective in DAPI (nuclei) and far-red (RLuc8.6) channels. […]

The nature of data set [5]: In vivo bioluminescent imaging (BLI) of RLuc8.6 in the head region. The arrangement: species or system mouse.
Source text: as §1
In vivo BLI—Two groups of mice (n=7 mice for FUS+RLuc8.6 group and n=3 mice for FUS alone group) underwent FUS-BBBO targeting one site at left striatum immediately after i.v. injection of RLuc8.6 (2 mg/mL, 8 mg/kg) or equivalent volume of PBS buffer. The third group of mice (n=6) was injected intravenously with the same dose of RLuc8.6 without FUS-BBBO procedure. BLI was conducted 1 h, 24 h, 48 h and 96 h after FUS insonation with an IVIS spectrum imager (Perkin Elmer). […] The bioluminescence signal was quantified by calculating the average radiance (p/s/cm^2/sr) in the head region of view C imaging using the Living Image software (Caliper Life Sciences).

The mark [6] stands for this setting: FUS-BBBO + protein i.v., RLuc8.6-IKVAV 104 mg/kg.

The values below come from patent US20250195629A1, “SITE-SPECIFIC BRAIN THERAPEUTICS” (William Marsh Rice University, priority 2023, published 2025).

On to `NCCCC(=O)O` [GABA], for which the “time the drug lasts in the brain after FUS-BBBO delivery” value in data set [1] is recorded as “approximately 100 minutes”.

B1: RLuc8.6-IKVAV: fusion of RLuc8.6 and ECM-mimicking peptide IKVAV (SEQ ID NO: 23) via GS linker; CDS SEQ ID NO: 18 (protein)
chain: MRGSHHHHHHGMASMTGGQQMGRDLYDDDDKDPMASKVYDPEQRKRMITGPQWWARCKQMNVLDSFINYYDSEKHAENAVIFLHGNATSSYLWRHVVPHIEPVARCIIPDLIGMGKSGKSGNGSYRLLDHYKYLTAWFELLNLPKKIIFVGHDWGSALAFHYAYEHQDRIKAIVHMESVVDVIESWMGWPDIEEELALIKSEEGEKMVLENNFFVETLLPSKIMRKLEPEEFAAYLEPFKEKGEVRRPTLSWPREIPLVKGGKPDVVQIVRNYNAYLRASDDLPKLFIESDPGFFSNAIVEGAKKFPNTEFVKVKGLHFLQEDAPDEMGKYIKSFVERVLKNEQGGSGSSGGSGGSGGSGIKVAV
modifications: misc_feature 1..1095 Synthetic: RLuc8.6-IKVAV
For B1, in data set [2] (FUS-BBBO + protein i.v.), the “Significance of body weight difference between day 0 and 3 days after systemic administration” value is reported as “ns”; the “weight loss on day 3 compared to day 0” value is listed as “no significant weight loss”. Also, the Weight loss in data set [2] (setting [6]) is given as 3.2±0.8%. Moreover, in data set [3] (2 days after FUS-BBBO, sum of average radiance in five sections), the “mean activity improvement over unmodified RLuc8.6” value is listed as 2.3(±0.3) fold. For the same molecule, in data set [3] (7 days after FUS-BBBO), the “bioluminescence vs RLuc8.6 alone control at 7 days” value is “significantly different”. In addition, the “level of bioluminescence vs control group without applying FUS” value in data set [3] (FUS-BBBO delivery, stated with FIG. 5e (7 days)) is listed as 113(±33) fold. The “duration of retention in the brain” value in data set [3] (after a single session of FUS-BBBO delivery) came out at 1 week.

B2: RLuc8.6: recombinant His-tagged luciferase, model protein enzyme converting coelenterazine into coelenteramide; CDS SEQ ID NO: 17 (protein)
chain: MRGSHHHHHHGMASMTGGQQMGRDLYDDDDKDPMASKVYDPEQRKRMITGPQWWARCKQMNVLDSFINYYDSEKHAENAVIFLHGNATSSYLWRHVVPHIEPVARCIIPDLIGMGKSGKSGNGSYRLLDHYKYLTAWFELLNLPKKIIFVGHDWGSALAFHYAYEHQDRIKAIVHMESVVDVIESWMGWPDIEEELALIKSEEGEKMVLENNFFVETLLPSKIMRKLEPEEFAAYLEPFKEKGEVRRPTLSWPREIPLVKGGKPDVVQIVRNYNAYLRASDDLPKLFIESDPGFFSNAIVEGAKKFPNTEFVKVKGLHFLQEDAPDEMGKYIKSFVERVLKNEQ
modifications: His tag; misc_feature 1..1032 Synthetic: RLuc8.6
With B2, in data set [2] (FUS-BBBO + protein i.v.), the “Significance of body weight difference between day 0 and 3 days after systemic administration” value is listed as “ns”; the “weight loss on day 3 compared to day 0” value is recorded as “no significant weight loss”. Besides, the Weight loss in data set [2] (setting [6]) is on record as 3.4±0.7%. Also, in data set [2] (protein i.v. alone without FUS), the “Significance of body weight difference between day 0 and 3 days after systemic administration” value is reported as “ns”; the Weight loss is given as 2.1 ± 0.6%. Besides, in data set [4], the “average fluorescence intensity of RLuc8.6 immunostaining, FUS target region vs untargeted contralateral site” value was “significantly higher immunostaining signal”. Also, the “IVIS enzyme levels vs controls” value in data set [5] (8 mg/kg i.v., from 24 hours after FUS-BBBO onwards) was “statistically indistinguishable from controls”. In addition, the “bioluminescence signal averaged over the entire brain, FUS+RLuc8.6 vs RLuc8.6 alone without FUS” value in data set [5] (8 mg/kg i.v., one FUS site left striatum, 1 h after FUS-BBBO, CTZ 3.5 mg/kg i.p.) was 2.2(±0.3) fold. Besides, the “upper threshold of enzyme concentration increase within the targeted site vs untargeted controls” value in data set [5] (calculated from volume of single BBB opening site (1% of brain volume)) is on record as “approximately 220 fold”. Besides, in data set [3] (7-day timepoint), the “enzyme function within the brain parenchyma” value is recorded as “remain functional”.
